# Laboratory results: patent US20250339531A1, “DUX4 POLYPEPTIDES AND NUCLEIC ACIDS FOR TREATING INFLAMMATORY AND AUTOIMMUNE CONDITIONS” (Fred Hutchinson Cancer Center, priority 2021, published 2025)
# B1: PRSS2 (protein)
# chain: IVGGYICEENSVPYQVSLNSGYHFCGGSLISEQWVVSAGHCYKSAINSKLSGRGCEYHRIQVRLGEHNIEVLEGNEQFINAAKIIRHPKYNSRTLDNDILLIKLSSPAVINSRVSAISLPTAPPAAGTESLISGWGNTLSSGADYPDELQCLDAPVLSQAECEASYPGKITNNMFCVGFLEGGKDSCQGDSGGPVVSNGELQGIVSWGYGCAQKNRPGVYTKVYNYVDWIKDTIAANS
# B2: PHGDH (protein)
# chain: AFANLRKVLISDSLDPCCRKILQDGGLQVVEKQNLSKEELIAELQDCEGLIVRSATKVTADVINAAEKLQVVGRAGTGVDNVDLEAATRKGILVMNTPNGNSLSAAELTCGMIMCLARQIPQATASMKDGKWERKKFMGTELNGKTLGILGLGRIGREVATRMQSFGMKTIGYDPIISPEVSASFGVQQLPLEEIWPLCDFITVHTPLLPSTTGLLNDNTFAQCKKGVRVVNCARGGIVDEGALLRALQSGQCAGAALDVFTEEPPRDRALVDHENVISCPHLGASTKEAQSRCGEEIAVQFVDMVKGKSLTGVVNAQALTSAFSPHTKPWIGLAEALGTLMRAWAGSPKGTIQVITQGTSLKNAGNCLSPAVIVGLLKEASKQADVNLVNAKLLVKEAGLNVTTSHSPAAPGEQGFGECLLAVALAGAPYQAVGLVQGTTPVLQGLNGAVFRPEVPLRRDLPLLLFRTQTSDPAMLPTMIGLLAEAGVRLLSYQTSLVSDGETWHVMGISSLLPSLEAWKQHVTEAFQFHF
# B3: AP2A1 (protein)
# chain: MPAVSKGDGMRGLAVFISDIRNCKSKEAEIKRINKELANIRSKFKGDKALDGYSKKKYVCKLLFIFLLGHDIDFGHMEAVNLLSSNKYTEKQIGYLFISVLVNSNSELIRLINNAIKNDLASRNPTFMCLALHCIANVGSREMGEAFAADIPRILVAGDSMDSVKQSAALCLLRLYKASPDLVPMGEWTARVVHLLNDQHMGVVTAAVSLITCLCKKNPDDFKTCVSLAVSRLSRIVSSASTDLQDYTYYFVPAPWLSVKLLRLLQCYPPPEDAAVKGRLVECLETVLNKAQEPPKSKKVQHSNAKNAILFETISLIIHYDSEPNLLVRACNQLGQFLQHRETNLRYLALESMCTLASSEFSHEAVKTHIDTVINALKTERDVSVRQRAADLLYAMCDRSNAKQIVSEMLRYLETADYAIREEIVLKVAILAEKYAVDYSWYVDTILNLIRIAGDYVSEEVWYRVLQIVTNRDDVQGYAAKTVFEALQAPACHENMVKVGGYILGEFGNLIAGDPRSSPPVQFSLLHSKFHLCSVATRALLLSTYIKFINLFPETKATIQGVLRAGSQLRNADVELQQRAVEYLTLSSVASTDVLATVLEEMPPFPERESSILAKLKRKKGPGAGSALDDGRRDPSSNDINGGMEPTPSTVSTPSPSADLLGLRAAPPPAAPPASAGAGNLLVDVFDGPAAQPSLGPTPEEAFLSELEPPAPESPMALLADPAPAADPGPEDIGPPIPEADELLNKFVCKNNGVLFENQLLQIGVKSEFRQNLGRMYLFYGNKTSVQFQNFSPTVVHPGDLQTQLAVQTKRVAAQVDGGAQVQQVLNIECLRDFLTPPLLSVRFRYGGAPQALTLKLPVTINKFFQPTEMAAQDFFQRWKQLSLPQQEAQKIFKANHPMDAEVTKAKLLGFGSALLDNVDPNPENFVGAGIIQTKALQVGCLLRLEPNAQAQMYRLTLRTSKEPVSRHLCELLAQQF
# B4: HAT1 (protein)
# chain: AGFGAMEKFLVEYKSAVEKKLAEYKCNTNTAIELKLVRFPEDLENDIRTFFPEYTHQLFGDDETAFGYKGLKILLYYIAGSLSTMFRVEYASKVDENFDCVEADDVEGKIRQIIPPGFCTNTNDFLSLLEKEVDFKPFGTLLHTYSVLSPTGGENFTFQIYKADMTCRGFREYHERLQTFLMWFIETASFIDVDDERWHYFLVFEKYNKDGATLFATVGYMTVYNYYVYPDKTRPRVSQMLILTPFQGQGHGAQLLETVHRYYTEFPTVLDITAEDPSKSYVKLRDFVLVKLCQDLPCFSREKLMQGFNEDMVIEAQQKFKINKQHARRVYEILRLLVTDMSDAEQYRSYRLDIKRRLISPYKKKQRDLAKMRKCLRPEELTNQMNQIEISMQHEQLEESFQELVEDYRRVIERLAQE
# B5: SLC3A2 (protein)
# chain: SQDTEVDMKEVELNELEPEKQPMNAASGAAMSLAGAEKNGLVKIKVAEDEAEAAAAAKFTGLSKEELLKVAGSPGWVRTRWALLLLFWLGWLGMLAGAVVIIVRAPRCRELPAQKWWHTGALYRIGDLQAFQGHGAGNLAGLKGRLDYLSSLKVKGLVLGPIHKNQKDDVAQTDLLQIDPNFGSKEDFDSLLQSAKKKSIRVILDLTPNYRGENSWFSTQVDTVATKVKDALEFWLQAGVDGFQVRDIENLKDASSFLAEWQNITKGFSEDRLLIAGTNSSDLQQILSLLESNKDLLLTSSYLSDSGSTGEHTKSLVTQYLNATGNRWCSWSLSQARLLTSFLPAQLLRLYQLMLFTLPGTPVFSYGDEIGLDAAALPGQPMEAPVMLWDESSFPDIPGAVSANMTVKGQSEDPGSLLSLFRRLSDQRSKERSLLHGDFHAFSAGPGLFSYIRHWDQNERFLVVLNFGDVGLSAGLQASDLPASASLPAKADLLLSTQPGREEGSPLELERLKLEPHEGLLLRFPYAA
# B6: S100A9 (protein)
# chain: MTCKMSQLERNIETIINTFHQYSVKLGHPDTLNQGEFKELVRKDLQNFLKKENKNEKVIEHIMEDLDTNADKQLSFEEFIMLMARLTWASHEKMHEGDEGPGHHHKPGLGEGTP
# B7: SLC25A3 (protein)
# chain: AVEEQYSCDYGSGRFFILCGLGGIISCGTTHTALVPLDLVKCRMQVDPQKYKGIFNGFSVTLKEDGVRGLAKGWAPTFLGYSMQGLCKFGFYEVFKVLYSNMLGEENTYLWRTSLYLAASASAEFFADIALAPMEAAKVRIQTQPGYANTLRDAAPKMYKEEGLKAFYKGVAPLWMRQIPYTMMKFACFERTVEALYKFVVPKPRSECSKPEQLVVTFVAGYIAGVFCAIVSHPADSVVSVLNKEKGSSASLVLKRLGFKGVWKGLFARIIMIGTLTALQWFIYDSVKVYFRLPRPPPPEMPESLKKKLGLTQ
# B8: PLOD1 (protein)
# chain: KGDAKPEDNLLVLTVATKETEGFRRFKRSAQFFNYKIQALGLGEDWNVEKGTSAGGGQKVRLLKKALEKHADKEDLVILFADSYDVLFASGPRELLKKFRQARSQVVFSAEELIYPDRRLETKYPVVSDGKRFLGSGGFIGYAPNLSKLVAEWEGQDSDSDQLFYTKIFLDPEKREQINITLDHRCRIFQNLDGALDEVVLKFEMGHVRARNLAYDTLPVLIHGNGPTKLQLNYLGNYIPRFWTFETGCTVCDEGLRSLKGIGDEALPTVLVGVFIEQPTPFVSLFFQRLLRLHYPQKHMRLFIHNHEQHHKAQVEEFLAQHGSEYQSVKLVGPEVRMANADARNMGADLCRQDRSCTYYFSVDADVALTEPNSLRLLIQQNKNVIAPLMTRHGRLWSNFWGALSADGYYARSEDYVDIVQGRRVGVWNVPYISNIYLIKGSALRGELQSSDLFHHSKLDPDMAFCANIRQQDVFMFLTNRHTLGHLLSLDSYRTTHLHNDLWEVFSNPEDWKEKYIHQNYTKALAGKLVETPCPDVYWFPIFTEVACDELVEEMEHFGQWSLGNNKDNRIQGGYENVPTIDIHMNQIGFEREWHKFLLEYIAPMTEKLYPGYYTRAQFDLAFVVRYKPDEQPSLMPHHDASTFTINIALNRVGVDYEGGGCRFLRYNCSIRAPRKGWTLMHPGRLTHYHEGLPTTRGTRYIAVSFVDP
# B9: RTN4 (protein)
# chain: MEDLDQSPLVSSSDSPPRPQPAFKYQFVREPEDEEEEEEEEEEDEDEDLEELEVLERKPAAGLSAAPVPTAPAAGAPLMDFGNDFVPPAPRGPLPAAPPVAPERQPSWDPSPVSSTVPAPSPLSAAAVSPSKLPEDDEPPARPPPPPPASVSPQAEPVWTPPAPAPAAPPSTPAAPKRRGSSGSVDETLFALPAASEPVIRSSAENMDLKEQPGNTISAGQEDFPSVLLETAASLPSLSPLSAASFKEHEYLGNLSTVLPTEGTLQENVSEASKEVSEKAKTLLIDRDLTEFSELEYSEMGSSFSVSPKAESAVIVANPREEIIVKNKDEEEKLVSNNILHNQQELPTALTKLVKEDEVVSSEKAKDSFNEKRVAVEAPMREEYADFKPFERVWEVKDSKEDSDMLAAGGKIESNLESKVDKKCFADSLEQTNHEKDSESSNDDTSFPSTPEGIKDRSGAYITCAPFNPAATESIATNIFPLLGDPTSENKTDEKKIEEKKAQIVTEKNTSTKTSNPFLVAAQDSETDYVTTDNLTKVTEEVVANMPEGLTPDLVQEACESELNEVTGTKIAYETKMDLVQTSEVMQESLYPAAQLCPSFEESEATPSPVLPDIVMEAPLNSAVPSAGASVIQPSSSPLEASSVNYESIKHEPENPPPYEEAMSVSLKKVSGIKEEIKEPENINAALQETEAPYISIACDLIKETKLSAEPAPDFSDYSEMAKVEQPVPDHSELVEDSSPDSEPVDLFSDDSIPDVPQKQDETVMLVKESLTETSFESMIEYENKEKLSALPPEGGKPYLESFKLSLDNTKDTLLPDEVSTLSKKEKIPLQMEELSTAVYSNDDLFISKEAQIRETETFSDSSPIEIIDEFPTLISSKTDSFSKLAREYTDLEVSHKSEIANAPDGAGSLPCTELPHDLSLKNIQPKVEEKISFSDDFSKNGSATSKVLLLPPDVSALATQAEIESIVKPKVLVKEAEKKLPSDTEKEDRSPSAIFSAELSKTSVVDLLYWRDIKKTGVVFGASLFLLLSLTVFSIVSVTAYIALALLSVTISFRIYKGVIQAIQKSDEGHPFRAYLESEVAISEELVQKYSNSALGHVNCTIKELRRLFLVDDLVDSLKFAVLMWVFTYVGALFNGLTLLILALISLFSVPVIYERHQAQIDHYLGLANKNVKDAMAKIQAKIPGLKRKAE
# Tested on: proteins that co-immunoprecipitated with DUX4-CTD constructs expressed in MB135 myoblasts
# Assay: LC-MS of proteins co-immunoprecipitated with DUX4-CTD (Table 1) and western validation
# Format: binding, human
# Set-up: key to 4. mL1dL2 + Dox + IFNG / 4. + IFNG mix / 4. longCTD + Dox + IFNG / 3. + IFNg + Dox longCTD / 3. + Dox longCTD / 3. + IFNG longCTD: peptide-spectrum matches (PSMs) per protein
# Details: kind of count not given; for 4. mL1dL2 + Dox + IFNG: LC-MS value per protein co-immunoprecipitated with DUX4-CTD construct mL1dL2 in MB135 myoblasts; for 4. + IFNG mix: LC-MS value per protein co-immunoprecipitated from MB135 myoblasts, + IFNG mix sample (no Dox)
# Outline: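 FLAG-tagged DUX4-CTD expressed in doxycycline-induced MB135 myoblasts, some also IFNG-treated; nuclear lysates in pH 7.4 NP-40 IP buffer were pre-cleared, then anti-FLAG immunoprecipitated 3 h at 4 °C. For LC-MS, FLAG-peptide elution, in-gel trypsin digest, Orbitrap analysis; proteins with ≥2 PSMs in both experiments categorised and ranked by total PSMs.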
molecule,measurement,value
B1,4. mL1dL2 + Dox + IFNG,1
B2,4. mL1dL2 + Dox + IFNG,1
B3,4. mL1dL2 + Dox + IFNG,5
B4,4. + IFNG mix,1
same,4. mL1dL2 + Dox + IFNG,10
B5,4. + IFNG mix,2
same,4. mL1dL2 + Dox + IFNG,4
B6,4. mL1dL2 + Dox + IFNG,2
B7,4. + IFNG mix,3
same,4. mL1dL2 + Dox + IFNG,2
B8,4. mL1dL2 + Dox + IFNG,2
B9,4. + IFNG mix,5
same,4. mL1dL2 + Dox + IFNG,5
